Entries after “also recorded” stand apart in the source; their conditions may differ.
What was measured:
[1] = Storage stability by ENO1 Human Activity Assay Kit (PK/LDH, NADH consumption); type: physicochemical; details: 500 ng Eno1; for activity at end of study (Week 10), −20° C.: kept at −20° C.; for activity retained at end of study (Week 10), −80° C.: kept at −80° C.; for Eno1 activity after storage, week 3, 4° C., 22° C., and 37° C.: stored at 4° C.; for Eno1 activity after storage, week 3, 4° C., 22° C., and 37° C. / Eno1 activity after storage, week 3, −80° C. and −20° C.: by week 3; for Eno1 activity after storage, week 3, −80° C. and −20° C.: stored at −80° C. and −20° C.; for Eno1 activity after storage, first week: stored at −80° C., −20° C., 4° C.; for Eno1 activity after storage, week 3, 4° C., 22° C., and 37° C. / Eno1 activity after storage, first week: 22° C., and 37° C.
Method: The stability of the Eno1-dendrimer-SMTP complex was evaluated at different temperatures, and stability was determined over a 3-4 month time period by measuring Eno1 activity using a commercially available Eno1 assay. The selected conjugates were also evaluated using biophysical techniques, including Dynamic Light Scattering (DLS) and UV-Vis spectroscopy to confirm complexation between the dendrimer-peptide conjugate and Eno1.
The stability of the Enolase-I/G5-dendrimer/SMTP conjugates was measured by using the ENO1 Human Activity Assay Kit (ABCAM, Cambridge, Mass.; Catalogue No. ab117994). Briefly, the sample was added to a microplate containing a monoclonal mouse antibody specific to Eno1. The microplate was incubated at room temperature for 2 hours, and Eno1 was immunocaptured within the wells of the microplate. The wells of the microplate were washed to remove all other enzymes. Eno1 activity was determined by following the consumption of NADH in an assay buffer that included pyruvate kinase (PK), lactate dehydrogenase (LDH) and the required substrates 2-phospho-D-glycerate (2PG) and NADH. Eno1 converts 2PG to phosphoenolpyruvate, which is converted to pyruvate by PK. Pyruvate is converted to lactate by LDH, and this reaction requires NADH. The consumption of NADH was monitored as decrease of absorbance at 340 nm.
The activity of Enolase-I/G5-dendrimer/SMTP conjugates that were stored at different temperatures at different time points was measured using the assay described above. A concentration of 500 ng of Eno1 was selected for testing because this concentration falls in the middle of the dynamic range of the assay kit. Two different sets of solutions were prepared. One set (control) contained Eno1 alone (i.e. unconjugated Eno1) and the other set contained Eno1/G5-dendrimer/SMTP mixtures. These mixtures were then kept at −80° C., −20° C., 4° C., 22° C., and 37° C. […] At the end of the study (Week 10), The Eno1/G5-dendrimer/SMTP solution that was kept at −80° C. retained about 90% of its activity whereas Eno1 alone was only 35% active. On the other hand, Eno1/G5-dendrimer/SMTP solution that was kept at −20° C. was about 24% active, whereas Eno1 alone stored at −20° C. was not active.

[2] = Tissue distribution of detectably labeled Eno1 PAMAM dendrimer complexes in mice (LI-COR imaging); type: in vivo
Method: A detectably labeled PAMAM dendrimer complex containing Eno1 was prepared using the method provided in the prior example and analyzed for tissue distribution in mice after subcutaneous injection. Specifically, for 72 hours prior to injection mice were fed alfalfa free food to limit background fluorescence. Mice were injected with 3 μg ENO1/mouse subcutaneously 150 μl total (75 μl left laterally, 75 μl right laterally). The molar ratio of dendrimer to Eno1 in the complex was 5:1. One, 4, and 24 hours post injection animals were sacrificed, skinned, and organs removed in preparation for LI-COR imaging.
A follow-up study was performed using the skeletal muscle targeted Eno1-PAMAM dendrimer complex containing the SMTP “ASSLNIA”. A detectably labeled PAMAM dendrimer complex containing Eno1 and SMTP ((Enolase-Vivo Tag680xl)-(G5-SMTP)) was prepared using the method provided in the prior example. The molar ratio of dendrimer to SMTP in the complex was 1:1. The experiments were performed essentially as described above. The skeletal muscle targeted Eno1-PAMAM dendrimer complex was administered at a dose of 50 μg/kg body weight. These images in FIG. 6B were taken after 1 hr of injection. Organs, other than the heart, were retained in the body.

[3] = test system: db/db mice; experiment: Body weight / weight gain in db/db mice treated with rosiglitazone and muscle targeted Eno1/dendrimer complex; type: in vivo; details: Eno1 400 μg/kg/day subcutaneous added to rosiglitazone 20 mg/kg/day
Method: A muscle targeted Eno1/dendrimer complex was generated to analyze its efficacy in reducing weight gain. The dendrimer complex comprised human Eno1, transcript variant 1 protein (SEQ ID NO: 2) which was non-covalently linked to a G5-PAMAM dendrimer/muscle targeting peptide (MTP) (ASSLNIA; SEQ ID NO: 7) conjugate. Stock solutions of Eno1 were prepared in buffer and the protein solution was mixed with the G5 dendrimer-MTP conjugate.
Lean mice and male obese and diabetic db/db mice (male BKS.Cg-m+/+Lepr^db/J) mice were obtained from a commercial vendor. All mice were housed 2-3 per cage at 22° C. on a 12:12 hr day-night cycle and were acclimated for 3 weeks at animal facility on a standard chow diet. At 8 weeks of age, 200 μg/kg body weight Eno1 was administered twice daily (at 9:00 a.m. and 5:00 p.m., 400 μg/kg daily dose) by subcutaneous injection, and 20 mg/kg body weight rosiglitazone was administered once daily by gavage at 9:00 a.m. Lean mice and db/db mice also received subcutaneous injections of saline as a control. The treatment groups were as follows: • 1. lean mice with saline injection (control) • 2. db/db mice with saline injection (control) • 3. db/db mice with rosiglitazone (20 mg/kg, once daily) • 4. db/db mice with rosiglitazone (20 mg/kg, once daily)+Eno1 (200 μg/kg, twice daily) […]

Substance	activity at end of study (Week 10), −20° C. [1]	activity retained at end of study (Week 10), −80° C. [1]	Eno1 activity after storage, week 3, 4° C., 22° C., and 37° C. [1]	Eno1 activity after storage, week 3, −80° C. and −20° C. [1]	Eno1 activity after storage, first week [1]	further results
Eno1 alone: Eno1 alone (i.e. unconjugated Eno1), control in the stability study	not active	35%	no activity	significant stability	active	
Eno1-PAMAM dendrimer: detectably labeled PAMAM dendrimer complex containing Eno1, molar ratio of dendrimer to Eno1 5:1, no targeting peptide						tissue distribution, 1 hour post injection ([2]; subcutaneous, 3 μg ENO1/mouse, dendrimer to Eno1 5:1, 1 hour (FIG. 6A)): general systemic distribution; tissue distribution, 4 hours post injection ([2]; subcutaneous, 3 μg ENO1/mouse, dendrimer to Eno1 5:1, 4 hours (FIG. 6A)): significant accumulation of the Eno1-PAMAM dendrimer was observed in liver, kidney, and subcutaneous fat, as well as in the upper torso; tissue distribution, 24 hours post injection ([2]; subcutaneous, 3 μg ENO1/mouse, dendrimer to Eno1 5:1, 24 hours (FIG. 6A)): substantially cleared and observed substantially in the liver and kidney
Eno1: In Example 1: human Eno1 transcript variant 1 protein (SEQ ID NO: 2) non-covalently linked to G5-PAMAM dendrimer/muscle targeting peptide (ASSLNIA) conjugate						effect on rosiglitazone-induced weight gain [3]: attenuates rosiglitazone-induced weight gain; also recorded: attenuates rosiglitazone induced weight gain; also recorded: attenuated
muscle-targeted Eno1 dendrimer complex: detectably labeled PAMAM dendrimer complex containing Eno1 and SMTP ASSLNIA, dendrimer to SMTP 1:1						tissue distribution of muscle targeted complex, 1 hr after injection ([2]; 50 μg/kg body weight, dendrimer to SMTP 1:1, 1 hr (FIG. 6B)): targeted to skeletal muscle, not heart
Eno1/G5-dendrimer/SMTP: Eno1 complexed with Generation 5 PAMAM dendrimers decorated with Skeletal Muscle Targeting Peptides (SMTPs)	about 24%	about 90%	no activity	significant stability	active; also recorded: slightly higher activity than Eno1 alone	

Source: patent US20160375113A1, “COMPOSITIONS COMPRISING ENO1 AND THEIR USE IN METHODS OF TREATING OBESITY OR OVERWEIGHT AND REDUCING WEIGHT GAIN” (Berg LLC, priority 2015, published 2016)
